Source: patent US12618835B2, “Multiplex microelectrode array for detection of proteases as biomarkers” (Kansas State University Research Foundation, priority 2021, dated 2026)
Where no end group is shown, it is not given here. [ ]: non-standard residue; d: D form. The star is where a group is joined. aminomethylferrocene = [Fe+2].c1cc[c-](CN*)c1.c1cc[cH-]c1; Ava = NCCCCC(=O)O

Key:
cathepsin B [1] = molecular target: T1, cathepsin B (Homo sapiens, UniProt P07858); assay: Determination of cleavage sites by HPLC-MS; type: biochemical; set-up: purchased R&D Systems Inc. (Minneapolis, MN); conditions: 50 mM MES pH 5.0, 250 mM NaCl, 0.17 μM cathepsin B, 2 h and 3 h
From the text: Here, the data is normalized to the value of ip0 derived from the fitting data according to eq 9. This normalization accounts for variations in I′ of the peptide-Fc substrate between each of the electrodes, and the values of ip0 and values of ip0 are listed in Table S3. […] FIG. 8b is a bar graph illustrating the differences in the measured values of 1/τ broken down by channels with H-16 (shown in blue), H-15 (shown in red) and H-3 (shown in green), similar to FIG. 8a. Here the average values of 1/τ were measured to be (8.9±1.1)×10^−4 s^−1, (6.8±1.8)×10^−4 s^−1, and (7.4±0.9)×10^−4 s^−1 for H-16, H-15 and H-3, respectively. These three peptides show similar values of 1/τ because the majority of the amino acid sequences are similar. […] For peptide H-15, all analyte solutions contained 6.5 mM peptide H-15, 50 mM MES buffer (pH 5.0) and 250 mM NaCl. Chromatograms of the peptide in the solution were then analyzed. H-15 appeared at 35.9 min in the chromatogram as verified by mass spectrometry. After incubation with cathepsin B for 2 h the cleaved fragment connected to the Fc moiety appeared at 16.0 min in the chromatogram as verified by mass spectrometry [showing a mass of 626.5 [M+23(Na)] in the mass spectrum]. A final chromatogram of peptide H-15 obtained after incubation with 5.75 ng/μL (0.17 μM) cathepsin B for 3 h confirms the cleavage site. Analyte solution for peptide H-16 was 50 mM MES (pH 5.0) and 250 mM NaCl. The hexapeptide appeared at 33.4 min in the HPLC chart and its structure was verified by mass spectrometry analysis. After treatment of hexapeptide H-16 with cathepsin B in 50 mM MES (pH 5.0) and 250 mM NaCl for 2 h the cleaved fragment appeared at 16.0 min and its structure was verified by MS analysis [showing a mass of 625.043 (M−H2+1) in the mass spectrum]. Cleavage was confirmed by incubation of 6.5 mM peptide H-16 in 50 mM MES (pH 5.0) and 250 mM NaCl incubated with 5.75 ng/μl (0.17 μM) cathepsin B for 3 h.
The cleavage sites of the hexapeptide-Fc substrates were examined using HPLC as described above. Analytical HPLC was performed with a Shimadzu SCL-10A HPLC system fitted with a proto 300 C18 reverse phase semi-prep column (10 μm, 250×10 mm). The flow rate was 1 ml/min with a gradient elution starting from 100% solvent A (water containing 0.1% TFA) to 20% solvent A and 80% solvent B (acetonitrile containing 0.1% TFA) over 50 min. The UV absorbance was monitored at 254 nm. […] The absorbance peak at ˜33.5 min was peptide H-16 and peak at 16.0 min is assigned as [Leu-Ala-Gly-Val-Ala-NH═CH-Fc]^+ (residues 2-6 of SEQ ID NO:3) (mass of 625.288). […]

cathepsin B [2] = molecular target: T1, cathepsin B; set-up: purchased R&D Systems Inc. (Minneapolis, MN); conditions: previous finding; cited from earlier work

cleavage site by cathepsin B (cathepsin B [1])	cleavage site by cathepsin B (cathepsin B [1]; listed as peptide-Fc)	Substance	cleavage site by cathepsin B (found previously) (cathepsin B [2])
between Pro-Leu	–	H2N-(CH2)4-CO-Pro-Leu-Ala-Gly-Val-Ala-NH-CH2-Fc ([Ava]PLAGVA-aminomethylferrocene) [Peptide H-16]	–
between Leu and Ala residues	between Leu and Ala	H2N-(CH2)4-CO-Pro-Leu-Ala-Phe-Val-Ala-NH-CH2-Fc ([Ava]PLAFVA-aminomethylferrocene) [Peptide H-15]	–
between Gly-Ala and Phe-Gly residues	–	H2N-(CH2)4-CO-Pro-Leu-Arg-Phe-Gly-Ala-NH-CH2-Fc ([Ava]PLRFGA-aminomethylferrocene) [Peptide H-3]	between the Gly-Ala residues and between the Phe-Gly residues
